The target of the assay is SecYEG(148/298) labeled with Cy3 and Atto647N, embedded in nanodiscs (UniProt P0AGA2). In words: not stated; ratio of YidC to SecY in nanodiscs prepared with YidC at a concentration equal to that of SecYEG (SI Appendix, Fig. S9A).

B1: YidC (natural protein)
chain: MDSQRNLLVIALLFVSFMIWQAWEQDKNPQPQAQQTTQTTTTAAGSAADQGVPASGQGKLISVKTDVLDLTINTRGGDVEQALLPAYPKELNSTQPFQLLETSPQFIYQAQSGLTGRDGPDNPANGPRPLYNVEKDAYVLAEGQNELQVPMTYTDAAGNTFTKTFVLKRGDYAVNVNYNVQNAGEKPLEISSFGQLKQSITLPPHLDTGSSNFALHTFRGAAYSTPDEKYEKYKFDTIADNENLNISSKGGWVAMLQQYFATAWIPHNDGTNNFYTANLGNGIAAIGYKSQPVLVQPGQTGAMNSTLWVGPEIQDKMAAVAPHLDLTVDYGWLWFISQPLFKLLKWIHSFVGNWGFSIIIITFIVRGIMYPLTKAQYTSMAKMRMLQPKIQAMRERLGDDKQRISQEMMALYKAEKVNPLGGCFPLLIQMPIFLALYYMLMGSVELRQAPFALWIHDLSAQDPYYILPILMGVTMFFIQKMSPTTVTDPMQQKIMTFMPVIFTVFFLWFPSGLVLYYIVSNLVTIIQQQLIYRGLEKRGLHSREKKKS
The term stoichiometry N denotes the number of molecules, sites or subunits per partner or assembly. Consider B1, for which the stoichiometry N is 1 YidC:SecY.
